Results published in patent publication US20090311714.

T1: L-Ala-D-iGlu-L-Lys-D-Ala (not fully specified)
T1 chain: AEKA

T2: UDP-MurNAc-L-Ala-D-iGlu-L-Lys-D-Ala (not fully specified)
T2 chain: AEKA

T3: GlcNAc-MurNAc-L-Ala-D-iGlu-L-(N-epsilon-D-iAsn)Lys-D-Ala (not fully specified)
T3 chain: AEKA

T4: N-alpha,N-epsilon-diacetyl-L-lysyl-D-alanine
T4 chain: KA

T5: GlcNAc-MurNAc-L-Ala-D-iGln-L-Lys-D-Ala
T5 chain: AQKA

T6: GlcNAc-MurNAc-L-Ala-D-iGln-L-(N-epsilon-D-iAsn)Lys-D-Ala
T6 chain: AQKA

B1: L,D-transpeptidase of Enterococcus faecium M512 (Ldtfm), soluble recombinant fragment, residues 119 to 466, with C-terminal polyhistidine tag (protein)
chain: MAEKQEIDPVSQNHQKLDTTVQTLTTKLTDLNKDRTPTTDATIEKAGDSFVIKPEVNGNTIDVDAAVKQLKSAVNSGKDTIELTEFKEKPKVTSEDSSLKEQLASMNAIANVKATYSINGETFQIPSSDIMSWLTYNDGKVDLDTEQVRQYVTDLGTKYNTSTNDTKFKSTKRGEVTVPVGTYSWTIQTDSETEALKKAILAGQDFTRSPIVQGGTTADHPLIEDTYIEVDLENQHMWYYKDGKVALETDIVSGKPTTPTPAGVFYVWNKEEDATLKGTNDDGTPYESPVNYWMPIDWTGVGIHDSDWQPEYGGDLWKTRGSHGCINTPPSVMKELFGMVEKGTPVLVFGSHHHHHH
B2: D-aspartate ligase of Enterococcus faecium (Aslfm) (protein)
chain: MMNSIENEEFIPILLGSDMNVYGMARSFNEAYGKICQAYASDQLAPTRYSKIVNVEVIPGFDKDPVFIETMLRLAKERYSDKSKKYLLIACGDGYAELISQHKQELSEYFICPYIDYSLFERLINKVSFYEVCEEYDLPYPKTLIVREEMLVNGHLEQELPFEFPVALKPANSVEYLSVQFEGRKKAFILETREEFDLILGRIYEAGYKSEMIVQDFIPGDDSNMRVLNAYVDEDHQVRMMCLGHPLLEDPTPASIGNYVVIMPDYNEKIYQTIKAFLEKIEYTGFANFDMKYDPRDGEYKLFEINLRQGRSSFFVTLNGLNLARFVTEDRVFNKPFVETTYGTNQSDKARLWMGVPKKIFLEYARENEDKKLAEQMIKENRYGTTVFYEKDRSIKRWLLMKYMFHNYIPRFKKYFHVKEG

Assays:
L-Ala-D-iGlu-L-Lys-D-Ala = molecular target: T1, L-Ala-D-iGlu-L-Lys-D-Ala
[1] = molecular target: GlcNAc-MurNAc-L-Ala-D-iGlu-L-(N-epsilon-D-iAsn)Lys-D-Ala-D-Ala
[2] = molecular target: T2, UDP-MurNAc-L-Ala-D-iGlu-L-Lys-D-Ala
[3] = molecular target: T3, GlcNAc-MurNAc-L-Ala-D-iGlu-L-(N-epsilon- …)
[4] = molecular target: T4, N-alpha,N-epsilon-diacetyl-L-lysyl-D-ala …
[5] = molecular target: L-Ala-D-iGlu-L-Lys-D-Ala-D-Ala
[6] = molecular target: T5, GlcNAc-MurNAc-L-Ala-D-iGln-L-Lys-D-Ala
[7] = molecular target: T6, GlcNAc-MurNAc-L-Ala-D-iGln-L-(N-epsilon- …)
[8] = molecular target: UDP-MurNAc-L-Ala-D-iGlu-L-Lys-D-Ala-D-Ala

Row | Protein | formation of radioactive peptides in the exchange assay with D-[14C]Ala as the acceptor (L-Ala-D-iGlu-L-Lys-D-Ala) | formation of radioactive peptides in the exchange assay with D-[14C]Ala as the acceptor [1] | formation of radioactive peptides in the exchange assay with D-[14C]Ala as the acceptor [2] | formation of radioactive peptides in the exchange assay with D-[14C]Ala as the acceptor [3] | formation of radioactive peptides in the exchange assay with D-[14C]Ala as the acceptor [4] | formation of radioactive peptides in the exchange assay with D-[14C]Ala as the acceptor [5] | formation of dimers, by mass spectrometry (in vitro L,D-transpeptidation) [6] | formation of dimers, by mass spectrometry (in vitro L,D-transpeptidation) [7] | formation of radioactive peptides in the exchange assay with D-[14C]Ala as the acceptor [8] | formation of [14C]UDP-MurNac-hexapeptide in the D-aspartate ligase assay [8]
1 | B1 | Formation of radioactive peptides was observed ... with other donors containing a tetrapeptide ending in D-Ala | Formation of radioactive peptides was not detected | Formation of radioactive peptides was observed ... with other donors containing a tetrapeptide ending in D-Ala | Formation of radioactive peptides was observed ... also with the complete disaccharide-tetrapeptide(iAsn) peptidoglycan unit | Formation of radioactive peptides was observed not only with Ac2-L-Lys-D-Ala | Formation of radioactive peptides was not detected | formation of dimers with two types of donors (tetrapeptide and tetrapeptide-iAsn) ...; The muropeptide containing an unsubstituted tetrapeptide stem was not used as an acceptor | formation of dimers with two types of donors (tetrapeptide and tetrapeptide-iAsn) and two types of acceptors (tetrapeptide-iAsn and tripeptide-iAsn) in the four possible combinations | Formation of radioactive peptides was not detected | 
2 | B2 |  |  |  |  |  |  |  |  |  | Addition of 2 µg of purified protein in the D-aspartate ligase assay resulted in the formation of a radioactive product corresponding to the labeled hexapeptide
